Source: patent US20240182556A1 (OPSIDIO, published 2024)
Like-named read-outs stand apart in the source and are kept apart here.

T1: PE9413, C-terminal biotinylated peptide mapping on Exon6 of the SCF molecule (SCF248) (C-terminal biotin)
T1 construct: also called C-terminal biotinylated PE9413; C-ter PE9413
T1 peptide: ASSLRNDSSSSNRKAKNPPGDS

T2: N-terminal biotinylated PE9413 (not fully specified; N-terminal biotin)
T2 construct: also called PE9411; N-ter PE9413
T2 peptide: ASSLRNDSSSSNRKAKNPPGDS


What was measured:
[1] = target: T1, PE9413, C-terminal biotinylated peptide …; assay: yeast-displayed scFv, flow cytometry titration of biotinylated peptide
Description: (§1) The binding of the selected 48 clones described above to 170 nM of C-terminal biotinylated PE9413 was evaluated. The 24 clones with the highest binding signal were further evaluated for binding affinity. Each clone was incubated with increasing amounts of biotinylated PE9413, and stained with a fluorescently labeled anti-streptavidin antibody. Binding of the clone to PE9413 was analyzed by flow cytometry. A plot of concentration of PE9413 versus the median fluorescent signal of the yeast cell population that bound to PE9413 was used to estimate the binding affinity (KD) of each clone to C-terminal biotinylated PE9413.

[2] = target: T1, PE9413, C-terminal biotinylated peptide …; assay: as above
Description: as §1, with “PE9413. […]” for “PE9413.”

[3] = target: T2, N-terminal biotinylated PE9413; assay: yeast-displayed scFv, flow cytometry titration of N-terminal biotinylated peptide
Description: The affinity of the 12 best clones for the N-terminal biotinylated target peptide […] was also evaluated. Each clone was incubated with increasing amounts of N-terminal biotinylated PE9413, and stained with a fluorescently labeled anti-streptavidin antibody. Binding of the clone to N-terminal biotinylated PE9413 was analyzed by flow cytometry. A plot of concentration of PE9413 versus the median fluorescent signal of the yeast cell population that bound to PE9413 was used to estimate the binding affinity (KD) of each clone to N-terminal biotinylated PE9413. The tested clones were confirmed to have improved affinities over the parental antibody 5H10 against the target sequence PE9413, regardless of the biotinylation modification, as reported in Table A3 and FIG. 12.

Kd [1] [nM]	Kd [2] [nM]	Kd [3] [nM]	Binder
5.32			A44P scFv displayed on yeast (scFv, V domains shown, Aga2-anchored, VH-VL orientation; not shown: linker; SV5 tag) VH: QVQLVQSGAELKKPGSSVKISCKSSGYAFSSQWMNWVKQRPGQGLEWIGQIYPEDGDTHYNDKFKGKATLTADKSTSTAYMELSSLTSEDSAVYFCSSSNWVGSYWGQGTLVTVSS VL: DVVMTQSPLSLPVTLGQPASISCKSSQSLLESDGNTYLNWLQQRPGQSPRRLIYLVNRLDSGVPDRFSGSGSGTDFTLKISRVEAEDVGVYYCWQGTDLPQTFGGGTKVEIK
5.3			B23P scFv displayed on yeast (scFv, V domains shown, Aga2-anchored, VH-VL orientation; not shown: linker; SV5 tag) VH: QVQLVQSGAELKKPGSSVKISCKSSGYAFSSYYMNWVKQRPGQGLEWIGQIYPGDGDTHMNGKFKGKATLTADKSTSTAYMELSSLTSEDSAVYFCSSSNWVGSYWGQGTLVTVSS VL: DVVMTQSPLSLPVTLGQPASISCKSSQSLLESDGNTYLNWLQQRPGQSPRRLIYLVSRRDSGVPDRFSGSGSGTDFTLKISRVEAEDVGVYYCWQGTDLPQTFGGGTKVEIK
6.69			F64P scFv displayed on yeast (scFv, V domains shown, Aga2-anchored, VH-VL orientation; not shown: linker; SV5 tag) VH: QVQLVQSGAELKKPGSSVKISCKSSGYAFSSYYMNWVKQRPGQGLEWIGQIYPGDGDTHMNGKFKGKATLTADKSTSTAYMELSSLTSEDSAVYFCSSSNWVGSYWGQGTLVTVSS VL: DVVMTQSPLSLPVTLGQPASISCKSSQSLLESDGNTYLNWLQQRPGQSPRRLIYLVDRLDSGVPDRFSGSGSGTDFTLKISRVEAEDVGVYYCWQGTDLPQTFGGGTKVEIK
5.93			G14P scFv displayed on yeast (scFv, V domains shown, Aga2-anchored, VH-VL orientation; not shown: linker; SV5 tag) VH: QVQLVQSGAELKKPGSSVKISCKSSGYAFSSQWMNWVKQRPGQGLEWIGQIYPGDGDTHYNDKFKGKATLTADKSTSTAYMELSSLTSEDSAVYFCSSSNWVGSYWGQGTLVTVSS VL: DVVMTQSPLSLPVTLGQPASISCKSSQSLLEEDGNTYLNWLQQRPGQSPRRLIYLVDRLDDGVPDRFSGSGSGTDFTLKISRVEAEDVGVYYCWQGTDLPQTFGGGTKVEIK
5.06			B34P scFv displayed on yeast (scFv, V domains shown, Aga2-anchored, VH-VL orientation; not shown: linker; SV5 tag) VH: QVQLVQSGAELKKPGSSVKISCKSSGYAFSSNWMNWVKQRPGQGLEWIGQIYPEDGDTHYNDKFKGKATLTADKSTSTAYMELSSLTSEDSAVYFCSSSNWVGSYWGQGTLVTVSS VL: DVVMTQSPLSLPVTLGQPASISCKSSQSLLESDGNTYLNWLQQRPGQSPRRLIYLVSRRDSGVPDRFSGSGSGTDFTLKISRVEAEDVGVYYCWQGTDLPQTFGGGTKVEIK
4.97			B53P scFv displayed on yeast (scFv, V domains shown, Aga2-anchored, VH-VL orientation; not shown: linker; SV5 tag) VH: QVQLVQSGAELKKPGSSVKISCKSSGYAFSSQWMNWVKQRPGQGLEWIGQIYPEDGDIHYNGKFKGKATLTADKSTSTAYMELSSLTSEDSAVYFCSSSNWVGSYWGQGTLVTVSS VL: DVVMTQSPLSLPVTLGQPASISCKSSQSLLESDGNTYLNWLQQRPGQSPRRLIYLVDRLDSGVPDRFSGSGSGTDFTLKISRVEAEDVGVYYCWQGTDLPQTFGGGTKVEIK
4.52	4.52	6.38	B104P scFv displayed on yeast (scFv, V domains shown, Aga2-anchored, VH-VL orientation; not shown: linker; SV5 tag) VH: QVQLVQSGAELKKPGSSVKISCKSSGYAFSSQWMNWVKQRPGQGLEWIGQIYPDDGDTHYNDKFKGKATLTADKSTSTAYMELSSLTSEDSAVYFCSSSNWVGSYWGQGTLVTVSS VL: DVVMTQSPLSLPVTLGQPASISCKSSQSLLEADGNTYLNWLQQRPGQSPRRLIYLVDRLDSGVPDRFSGSGSGTDFTLKISRVEAEDVGVYYCWQGTDLPQTFGGGTKVEIK
3.29	3.29	5.23	A64P scFv displayed on yeast (scFv, V domains shown, Aga2-anchored, VH-VL orientation; not shown: linker; SV5 tag) VH: QVQLVQSGAELKKPGSSVKISCKSSGYAFSSNWMNWVKQRPGQGLEWIGQIYPEDGDTHYNGKFKGKATLTADKSTSTAYMELSSLTSEDSAVYFCSSSNWVGSYWGQGTLVTVSS VL: DVVMTQSPLSLPVTLGQPASISCKSSQSLLEEDGNTYLNWLQQRPGQSPRRLIYLVNRLDDGVPDRFSGSGSGTDFTLKISRVEAEDVGVYYCWQGTDLPQTFGGGTKVEIK
2.52	2.52	3.93	A84P scFv displayed on yeast (scFv, V domains shown, Aga2-anchored, VH-VL orientation; not shown: linker; SV5 tag) VH: QVQLVQSGAELKKPGSSVKISCKSSGYAFSSQWMNWVKQRPGQGLEWIGQIYPEDGDTHMNGKFKGKATLTADKSTSTAYMELSSLTSEDSAVYFCSSSNWVGSYWGQGTLVTVSS VL: DVVMTQSPLSLPVTLGQPASISCKSSQSLLEEDGNTYLNWLQQRPGQSPRRLIYLVDRLDIGVPDRFSGSGSGTDFTLKISRVEAEDVGVYYCWQGTDLPQTFGGGTKVEIK
3.63	3.63	7.14	B114P scFv displayed on yeast (scFv, V domains shown, Aga2-anchored, VH-VL orientation; not shown: linker; SV5 tag) VH: QVQLVQSGAELKKPGSSVKISCKSSGYAFSSQWMNWVKQRPGQGLEWIGQIYPEDGDTHMNGKFKGKATLTADKSTSTAYMELSSLTSEDSAVYFCSSSNWDGSYWGQGTLVTVSS VL: DVVMTQSPLSLPVTLGQPASISCKSSQSLLEEDGNTYLNWLQQRPGQSPRRLIYLVDRLDSGVPDRFSGSGSGTDFTLKISRVEAEDVGVYYCWQGTDLPQTFGGGTKVEIK
8.07			D113P scFv displayed on yeast (scFv, V domains shown, Aga2-anchored, VH-VL orientation; not shown: linker; SV5 tag) VH: QVQLVQSGAELKKPGSSVKISCKSSGYAFSSQWMNWVKQRPGQGLEWIGQIYPGDGDTHMNGKFKGKATLTADKSTSTAYMELSSLTSEDSAVYFCSSSNWVGSYWGQGTLVTVSS VL: DVVMTQSPLSLPVTLGQPASISCKSSQSLLEGDGNTYLNWLQQRPGQSPRRLIYLVDRLDIGVPDRFSGSGSGTDFTLKISRVEAEDVGVYYCWQGTDLPQTFGGGTKVEIK
6.38			D74P scFv displayed on yeast (scFv, V domains shown, Aga2-anchored, VH-VL orientation; not shown: linker; SV5 tag) VH: QVQLVQSGAELKKPGSSVKISCKSSGYAFSSQWMNWVKQRPGQGLEWIGQIYPGDNDTHYNDKFKGKATLTADKSTSTAYMELSSLTSEDSAVYFCSSSNWVGSYWGQGTLVTVSS VL: DVVMTQSPLSLPVTLGQPASISCKSSQSLLEADGNTYLNWLQQRPGQSPRRLIYLVDRLDSGVPDRFSGSGSGTDFTLKISRVEAEDVGVYYCWQGTDLPQTFGGGTKVEIK
7.09			G104P scFv displayed on yeast (scFv, V domains shown, Aga2-anchored, VH-VL orientation; not shown: linker; SV5 tag) VH: QVQLVQSGAELKKPGSSVKISCKSSGYAFSSQWMNWVKQRPGQGLEWIGQIYPGDGDTHMNGKFKGKATLTADKSTSTAYMELSSLTSEDSAVYFCSSSNWVGSYWGQGTLVTVSS VL: DVVMTQSPLSLPVTLGQPASISCKSSQSLLEEDGNTYLNWLQQRPGQSPRRLIYLVDRLDDGVPDRFSGSGSGTDFTLKISRVEAEDVGVYYCWQGTDLPQTFGGGTKVEIK
5.79			G24P scFv displayed on yeast (scFv, V domains shown, Aga2-anchored, VH-VL orientation; not shown: linker; SV5 tag) VH: QVQLVQSGAELKKPGSSVKISCKSSGYAFSSNWMNWVKQRPGQGLEWIGQIYPEDGDTHYNDKFKGKATLTADKSTSTAYMELSSLTSEDSAVYFCSSSNWVGSYWGQGTLVTVSS VL: DVVMTQSPLSLPVTLGQPASISCKSSQSLLESDGNTYLNWLQQRPGQSPRRLIYLVDRLDSGVPDRFSGSGSGTDFTLKISRVEAEDVGVYYCWQGTDLPQTFGGGTKVEIK
3.64	3.64	5.85	A104P scFv displayed on yeast (scFv, V domains shown, Aga2-anchored, VH-VL orientation; not shown: linker; SV5 tag) VH: QVQLVQSGAELKKPGSSVKISCKSSGYAFSSQWMNWVKQRPGQGLEWIGQIYPEDGDTHYNGKFKGKATLTADKSTSTAYMELSSLTSEDSAVYFCSSSNWVGSYWGQGTLVTVSS VL: DVVMTQSPLSLPVTLGQPASISCKSSQSLLEEDGNTYLNWLQQRPGQSPRRLIYLVDRLDSGVPDRFSGSGSGTDFTLKISRVEAEDVGVYYCWQGTDLPQTFGGGTKVEIK
14.4			D24P scFv displayed on yeast (scFv, V domains shown, Aga2-anchored, VH-VL orientation; not shown: linker; SV5 tag) VH: QVQLVQSGAELKKPGSSVKISCKSSGYAFSSQWMNWVKQRPGQGLEWIGQIYPEDGDTHYNGKFKGKATLTADKSTSTAYMELSSLTSEDSAVYFCSSSNWVGSYWGQGTLVTVSS VL: DVVMTQSPLSLPVTLGQPASISCKSSQSLLESDGNTYLNWLQQRPGQSPRRLIYLVSRLDIGVPDRFSGSGSGTDFTLKISRVEAEDVGVYYCWQGTDLPQTFGGGTKVEIK
6.97			D124P scFv displayed on yeast (scFv, V domains shown, Aga2-anchored, VH-VL orientation; not shown: linker; SV5 tag) VH: QVQLVQSGAELKKPGSSVKISCKSSGYAFSSQWMNWVKQRPGQGLEWIGQIYPEDGDTHYNGKFKGKATLTADKSTSTAYMELSSLTSEDSAVYFCSSSNWVGSYWGQGTLVTVSS VL: DVVMTQSPLSLPVTLGQPASISCKSSQSLLESDGNTYLNWLQQRPGQSPRRLIYLVDRLDSGVPDRFSGSGSGTDFTLKISRVEAEDVGVYYCWQGTDLPQTFGGGTKVEIK
6.33			E94P scFv displayed on yeast (scFv, V domains shown, Aga2-anchored, VH-VL orientation; not shown: linker; SV5 tag) VH: QVQLVQSGAELKKPGSSVKISCKSSGYAFSSQWMNWVKQRPGQGLEWIGQIYPGDGDTHMNGKFKGKATLTADKSTSTAYMELSSLTSEDSAVYFCSSSNWVGSYWGQGTLVTVSS VL: DVVMTQSPLSLPVTLGQPASISCKSSQSLLEEDGNTYLNWLQQRPGQSPRRLIYLVDRLDSGVPDRFSGSGSGTDFTLKISRVEAEDVGVYYCWQGTDLPQTFGGGTKVEIK
